Laboratory results: paper PMC9482650, “Quantitative fragmentomics allow affinity mapping of interactomes” (Nature Communications, 2022)

Assays:
Assay in all cases: holdup assay
Design in all cases: key: below the threshold = too weak to quantify, mostly under pKd 3.1 to 4
DLG1_2, Q12959 = biological target: DLG1_2, Q12959
NHERF3_1, Q5T2W1 = biological target: T1, NHERF3_1, Q5T2W1
T1 sequence (Q5T2W1 4-100, limits assumed, looked up): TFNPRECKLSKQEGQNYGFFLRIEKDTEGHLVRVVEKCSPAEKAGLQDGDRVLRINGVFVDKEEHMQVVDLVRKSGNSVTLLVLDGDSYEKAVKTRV

NHERF3_4, Q5T2W1 = biological target: T2, NHERF3_4, Q5T2W1
T2 sequence (Q5T2W1 373-468, limits assumed, looked up): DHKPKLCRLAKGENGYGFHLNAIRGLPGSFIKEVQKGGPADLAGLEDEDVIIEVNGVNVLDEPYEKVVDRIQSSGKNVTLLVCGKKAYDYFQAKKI

FRMPD3, Q5JV73 = biological target: FRMPD3, Q5JV73
DLG1_3, Q12959 = biological target: DLG1_3, Q12959
MAGI2_2, Q86UL8 = biological target: MAGI2_2, Q86UL8
GRIP1_7, Q9Y3R0 = biological target: T3, GRIP1_7, Q9Y3R0
T3 sequence (Q9Y3R0 999-1096, limits assumed, looked up): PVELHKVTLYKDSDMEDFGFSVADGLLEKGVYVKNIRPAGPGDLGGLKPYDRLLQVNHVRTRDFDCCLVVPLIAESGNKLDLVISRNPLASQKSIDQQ

IL16_4, Q14005 = biological target: IL16_4, Q14005
Inadl_5, Q8NI35 = biological target: Inadl_5, Q8NI35
GRID2IP_1, A4D2P6 = biological target: GRID2IP_1, A4D2P6
FRMPD1, Q5SYB0 = biological target: T4, FRMPD1, Q5SYB0
T4 sequence (Q5SYB0 52-145, limits assumed, looked up): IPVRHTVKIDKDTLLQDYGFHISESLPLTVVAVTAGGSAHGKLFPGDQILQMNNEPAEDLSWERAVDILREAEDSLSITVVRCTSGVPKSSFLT

PTPN13_1, Q12923 = biological target: T5, PTPN13_1, Q12923
T5 sequence (Q12923 1088-1188, limits assumed, looked up): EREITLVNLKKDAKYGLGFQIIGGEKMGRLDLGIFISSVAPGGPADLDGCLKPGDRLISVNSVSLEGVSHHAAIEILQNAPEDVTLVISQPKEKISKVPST

APBA1_2, Q02410 = biological target: T6, APBA1_2, Q02410
T6 sequence (Q02410 742-832, limits assumed, looked up): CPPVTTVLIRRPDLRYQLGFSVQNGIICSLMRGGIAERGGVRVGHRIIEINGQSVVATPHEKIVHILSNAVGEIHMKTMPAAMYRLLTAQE

APBA2_1, Q99767 = biological target: T7, APBA2_1, Q99767
T7 sequence (Q99767 563-664, limits assumed, looked up): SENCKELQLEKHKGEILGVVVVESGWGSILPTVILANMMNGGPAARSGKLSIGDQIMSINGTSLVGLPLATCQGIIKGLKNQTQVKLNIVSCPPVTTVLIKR

NHERF3_3, Q5T2W1 = biological target: T8, NHERF3_3, Q5T2W1
T8 sequence (Q5T2W1 238-333, limits assumed, looked up): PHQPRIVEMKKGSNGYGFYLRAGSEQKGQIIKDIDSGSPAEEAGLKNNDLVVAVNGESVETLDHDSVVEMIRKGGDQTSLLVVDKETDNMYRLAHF

DFNB31_1, Q9P202 = biological target: T9, DFNB31_1, Q9P202
T9 sequence (Q9P202 135-233, limits assumed, looked up): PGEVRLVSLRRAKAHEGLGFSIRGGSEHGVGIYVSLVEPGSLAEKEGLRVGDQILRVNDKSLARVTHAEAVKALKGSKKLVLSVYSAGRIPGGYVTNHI

APBA1_1, Q02410 = biological target: T10, APBA1_1, Q02410
T10 sequence (Q02410 651-752, limits assumed, looked up): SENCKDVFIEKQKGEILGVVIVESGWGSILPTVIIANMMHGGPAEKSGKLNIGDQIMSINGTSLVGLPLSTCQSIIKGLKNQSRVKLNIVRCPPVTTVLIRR

Inadl_2, Q8NI35 = biological target: Inadl_2, Q8NI35
LRRC7, Q96NW7 = biological target: T11, LRRC7, Q96NW7
T11 sequence (Q96NW7 1440-1537, limits assumed, looked up): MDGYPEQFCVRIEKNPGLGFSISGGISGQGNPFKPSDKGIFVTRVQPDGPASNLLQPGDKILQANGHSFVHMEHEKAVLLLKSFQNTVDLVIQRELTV

MAGI2_3, Q86UL8 = biological target: MAGI2_3, Q86UL8
APBA3_1, O96018 = biological target: T12, APBA3_1, O96018
T12 sequence (O96018 389-490, limits assumed, looked up): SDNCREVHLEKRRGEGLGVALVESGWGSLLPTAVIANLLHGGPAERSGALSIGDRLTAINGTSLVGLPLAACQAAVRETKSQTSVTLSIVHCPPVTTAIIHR

DLG1_1, Q12959 = biological target: DLG1_1, Q12959
DLG2_3, Q15700 = biological target: DLG2_3, Q15700
GRIP2_7, Q9C0E4 = biological target: GRIP2_7, Q9C0E4
HTRA2, O43464 = biological target: HTRA2, O43464
FRMPD4, Q14CM0 = biological target: FRMPD4, Q14CM0
[1] = plain residues with an end cap or a label only (N-terminal biotin on a linker: ado-ado)
[2] = modified: phospho on T at position -2 from the C-terminal residue

Measured: pKd

Sequence of GRIP2_7, Q9C0E4 (Q9C0E4 934-1023): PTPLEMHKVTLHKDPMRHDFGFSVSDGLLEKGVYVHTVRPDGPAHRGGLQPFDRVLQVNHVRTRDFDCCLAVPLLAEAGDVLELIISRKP
Sequence of FRMPD4, Q14CM0 (Q14CM0 67-160): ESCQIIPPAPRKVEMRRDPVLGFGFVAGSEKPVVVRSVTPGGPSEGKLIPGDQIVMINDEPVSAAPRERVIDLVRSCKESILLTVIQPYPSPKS
Sequence of FRMPD3, Q5JV73 (Q5JV73 12-100): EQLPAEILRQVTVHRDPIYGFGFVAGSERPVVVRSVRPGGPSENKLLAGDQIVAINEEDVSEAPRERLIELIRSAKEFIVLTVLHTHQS
Sequence of IL16_4, Q14005 (Q14005 1229-1329): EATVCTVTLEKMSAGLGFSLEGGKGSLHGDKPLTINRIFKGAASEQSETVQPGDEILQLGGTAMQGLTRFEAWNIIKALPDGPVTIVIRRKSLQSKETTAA
Sequence of Inadl_2, Q8NI35 (Q8NI35 238-335): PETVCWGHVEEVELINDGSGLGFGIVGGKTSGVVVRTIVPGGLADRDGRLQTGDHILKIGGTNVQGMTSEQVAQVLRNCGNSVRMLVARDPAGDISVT
Sequence of MAGI2_3, Q86UL8 (Q86UL8 600-682): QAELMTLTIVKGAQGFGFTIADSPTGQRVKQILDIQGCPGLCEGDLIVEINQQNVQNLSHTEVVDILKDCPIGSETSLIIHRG
Sequence of MAGI2_2, Q86UL8 (Q86UL8 410-522): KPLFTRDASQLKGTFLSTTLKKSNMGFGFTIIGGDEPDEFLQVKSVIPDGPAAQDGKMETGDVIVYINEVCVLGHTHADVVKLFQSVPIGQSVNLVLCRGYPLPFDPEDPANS
Sequence of Inadl_5, Q8NI35 (Q8NI35 673-780): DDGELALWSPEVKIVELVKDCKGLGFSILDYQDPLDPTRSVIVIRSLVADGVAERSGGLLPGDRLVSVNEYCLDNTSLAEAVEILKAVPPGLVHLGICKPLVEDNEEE
Sequence of GRID2IP_1, A4D2P6 (A4D2P6 1-87): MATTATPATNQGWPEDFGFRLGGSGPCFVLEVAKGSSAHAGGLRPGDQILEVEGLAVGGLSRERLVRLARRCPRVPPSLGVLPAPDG
Sequence of HTRA2, O43464 (O43464 355-458): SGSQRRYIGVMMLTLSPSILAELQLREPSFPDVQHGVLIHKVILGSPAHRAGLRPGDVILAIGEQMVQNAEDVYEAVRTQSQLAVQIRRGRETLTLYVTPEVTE

B1: CCDC134, Q9H6E4 (peptide)
chain: PRISRSQSEL
4.42: NHERF3_1, Q5T2W1; [1]
below the threshold: DLG1_2, Q12959; [1] | NHERF3_4, Q5T2W1; [1] | FRMPD3, Q5JV73; [1] | DLG1_3, Q12959; [1] | GRIP1_7, Q9Y3R0; [1] | Inadl_5, Q8NI35; [1] | GRID2IP_1, A4D2P6; [1] | FRMPD1, Q5SYB0; [1] | PTPN13_1, Q12923; [1] | APBA1_2, Q02410; [1] | APBA2_1, Q99767; [1] | NHERF3_3, Q5T2W1; [1] | DFNB31_1, Q9P202; [1] | APBA1_1, Q02410; [1] | Inadl_2, Q8NI35; [1] | LRRC7, Q96NW7; [1] | MAGI2_3, Q86UL8; [1] | APBA3_1, O96018; [1] | DLG1_1, Q12959; [1] | GRIP2_7, Q9C0E4; [1] | HTRA2, O43464; [1] | FRMPD4, Q14CM0; [1]
3.85: MAGI2_2, Q86UL8; [1]
3.63: DLG2_3, Q15700; [1]
3.8: IL16_4, Q14005; [1]

B2: LPXN, O60711 (peptide)
chain: QPCFNKLFPL
3.63: APBA1_2, Q02410; [1]
3.73: NHERF3_4, Q5T2W1; [1]
4.1: HTRA2, O43464; [1]
3.69: GRIP2_7, Q9C0E4; [1]
below the threshold: DLG1_2, Q12959; [1] | FRMPD3, Q5JV73; [1] | DLG1_3, Q12959; [1] | MAGI2_2, Q86UL8; [1] | GRIP1_7, Q9Y3R0; [1] | IL16_4, Q14005; [1] | Inadl_5, Q8NI35; [1] | GRID2IP_1, A4D2P6; [1] | FRMPD1, Q5SYB0; [1] | PTPN13_1, Q12923; [1] | APBA2_1, Q99767; [1] | NHERF3_3, Q5T2W1; [1] | DFNB31_1, Q9P202; [1] | APBA1_1, Q02410; [1] | Inadl_2, Q8NI35; [1] | LRRC7, Q96NW7; [1] | MAGI2_3, Q86UL8; [1] | APBA3_1, O96018; [1] | DLG1_1, Q12959; [1] | DLG2_3, Q15700; [1]
4.64: FRMPD4, Q14CM0; [1]
4.01: NHERF3_1, Q5T2W1; [1]

B3: NLGN2, Q8NFZ4 (peptide)
chain: LPHPHSTTRV
3.78: DLG1_1, Q12959; [1]
3.7: IL16_4, Q14005; [1]
4.42: DLG2_3, Q15700; [1]
3.9: NHERF3_1, Q5T2W1; [1]
4.13: DLG1_3, Q12959; [1] | DFNB31_1, Q9P202; [1]
4.07: DLG1_2, Q12959; [1]
4.24: MAGI2_3, Q86UL8; [1]
4.93: MAGI2_2, Q86UL8; [1]
below the threshold: NHERF3_4, Q5T2W1; [1] | FRMPD3, Q5JV73; [1] | GRIP1_7, Q9Y3R0; [1] | Inadl_5, Q8NI35; [1] | GRID2IP_1, A4D2P6; [1] | FRMPD1, Q5SYB0; [1] | PTPN13_1, Q12923; [1] | APBA1_2, Q02410; [1] | APBA2_1, Q99767; [1] | NHERF3_3, Q5T2W1; [1] | APBA1_1, Q02410; [1] | Inadl_2, Q8NI35; [1] | LRRC7, Q96NW7; [1] | APBA3_1, O96018; [1] | GRIP2_7, Q9C0E4; [1] | HTRA2, O43464; [1] | FRMPD4, Q14CM0; [1]

B4: HPV18-E6_-2P, P06463 (peptide)
chain: RLQRRRETQV
3.88: DLG2_3, Q15700; [2]
below the threshold: DLG1_2, Q12959; [2] | NHERF3_1, Q5T2W1; [2] | NHERF3_4, Q5T2W1; [2] | FRMPD3, Q5JV73; [2] | DLG1_3, Q12959; [2] | MAGI2_2, Q86UL8; [2] | GRIP1_7, Q9Y3R0; [2] | IL16_4, Q14005; [2] | Inadl_5, Q8NI35; [2] | GRID2IP_1, A4D2P6; [2] | FRMPD1, Q5SYB0; [2] | PTPN13_1, Q12923; [2] | APBA1_2, Q02410; [2] | APBA2_1, Q99767; [2] | NHERF3_3, Q5T2W1; [2] | DFNB31_1, Q9P202; [2] | APBA1_1, Q02410; [2] | Inadl_2, Q8NI35; [2] | LRRC7, Q96NW7; [2] | MAGI2_3, Q86UL8; [2] | APBA3_1, O96018; [2] | DLG1_1, Q12959; [2] | GRIP2_7, Q9C0E4; [2] | HTRA2, O43464; [2] | FRMPD4, Q14CM0; [2]
